The record followed here is the DeepSol protein solubility set.

The data set in a line: soluble on expression in E. coli; label from the status in PepcDB or PDB records.
For the sequence “MAHHHHHHMEGARGSTLQVCGERHTMSLSLATALYADATRLYRLGDLHHARGAAEEALLSLSHSPHSDISDHTNHRHGDAHHEEAADSVSVGCEGSQAQQRQRHRLFGNTLLLLSSIYMAVQDYAEAERLLVTCDGYWRERLTSTHTRLSSVGTSAEVECACCSELDEGLAGVAYNRAVLRLEQLRRTPSFPASRDDGELWVAPPADLCGTDARLTYSLIPLSSTAASSGTPETLLASVMALLLDAQDRLAHTLGPPRGLLADVLHTIGVCHYEAADYIAALQAWQRSMAIRVHLQALRRRSDKNAAQRALHGGGGGECGDGTEELKLALTMEHVAQVYRLLEGRSVEALKLLDTVAATRRRYLGPTDPLCVRTLVLKGVLAAELGHTQLARALLERCSAIGGDASPETPPPSSSAYAVQEVEQ”, the “soluble on expression in E. coli” value was “soluble”.

In the case of “MAHHHHHHMKLLLQADTPGGAAEREANPKYLSTDTLIIVPGHGVLNAPNASEWKNESEWCLEPHQLRAGVVLPLCFASHIRRGLEILRDQINTSILIFSGGQTCGIAGPRSEALGYYIVAKESKLFGIFEPEYVAKDIMNGRIFTEEFARDSYENLLFSIARFYEVTGHFPGSVVVVGWKHKAERFTMYHREAIRFPADKFTYVGLDFADAEPFVEDLQPYQVAKPYTDENALSSVSKDMYLCDAGRRTRSKRNPYFRVPPYLVSCPPLRQLLQHCGPELIDTRRVPWK”, the “soluble on expression in E. coli” value is given as “not soluble”. As for “MGSDKIHHHHHHMNMLVRFFIMVSLLKQQLNKQLATEYLSVERLMAPVVRHYRVLPHDMGFRDHLPNYRYLSFIELNITNWLMACCHQKGIKNLGWIIAMQEMVYLKQIKFLDKMTVNSRVVGWDKKYVYFEHQFFVKNQLMAMGMTKFVLTNKQGKCATEVLDMTGEQLNEVIDTWSQHQVAIKSAKSTESTKAA”, the “soluble on expression in E. coli” value is recorded as “not soluble”. With “MTEADYGEMVRREKCIMFVKRFCPYSIRARELLHDRGVGCKIIEVDNNLDAYSFAKRNHSTFPVFFLDGDLVEGGCEKLLVLSDSNLPPFDKSPLLTQNREPVLLD” the entry was “not soluble”; with “MIQFKNISKHYQLKGQTIHALDQINLDIPAGSIFGIIGYSGAGKSTLIRLINLLERPTHGQIIINQKDFTALNAQSLRQERANIGMIFQHFNLLQTKTVAANIEMPLKLLGYSKIEREKRLMELLDFIDLTHKKDAFPDELSGGQKQRVGIARALANHPKILLCDEATSALDPQTTKSVLALLKKINKEQGITIVMVTHEMDVIESICDHVAVMESGHVIETGPTVEIFSNPQHPTTKTFIQTVLQQHLPVNILSKLEHQHHHSIYRLQFLGKSAQEPVIQSMIKQFDISLNILFANMTEIDGTVIGQMFVQLLGDDTLIQQAIEFLERHGVSVNQSGEQV”, “not soluble”. Turning to “MRYGFMKVAAAVPFVKVADCEYNIERIDRMVHEADAKGVEIMTFPELSITGYSCGDLFFQPFLQERANEALCRLVEQTANTTVMVIVGMPLRVEEKLFNSAVVFQQGKILGAIPKTYLPNYREFQEARWFSPAHTLQYSTISIGQHSVPIGRNLIFKCGTVGVGIEICEDMWTPFTPGTRLCLYGAEVIFNLSSSNENAGKHSYLRSLISGLSSQGICAYVYASSGYGESSTDIVFTGKAFIAEAGEIVEEMERFRYEERMIISDIDVSRIQTERLINSSFKAAVTFHTHDEKFNQLPFKLRSRQESLPMTRRVDRNPFMPEDKDRKERSREMINIQVCGLMQRLLHMGAEHAVIGISGGLDSALALIVCAQAFDRLDLPRKNIIAVTMPGFGTSDRTYRNAFALMEAIGVTIKEIDIKEACLRHFEAIGHNPEVQDTTFENTQARERTQILMNLANIYNAPVIGTGDLSELALGWVTYNGDHMSMYAVNAGIAKTTVQILVDHIAHSGWLDEAASAVLLDIVRTPISPELKPVGQLEHHHHHH”, the “soluble on expression in E. coli” value is “not soluble”. As for “MGSDKIHHHHHHMRTMVAVRLRNLVESDRERLLIWRNSPDVSAYMYSDHKIGHEEHDHWFDVARHDPRRRYWIIEADGEPVGLANLADIDLVHRRCAWAYYLASPKVRGLGVGSFVEFQIIEYVFNQLHLNKLWCEVLISNESVWRLHELYGFQREALFRQHVMKQGHEVDVIGLGLLASDWAARRDAMAERLCAKGYTIPDLTCRAA”, the “soluble on expression in E. coli” value was “not soluble”. In the case of “NTLGMVMHADGGYLGSKPYCASGQYIKRMSDYCRGCAYKVTESTTDDACPFNALYWHFLMRHSDQLRRNQRMGMIYKNLDRMAEAKQQALWERGEHLLARLDAGEAL”, the “soluble on expression in E. coli” value is listed as “not soluble”. As for “MGHHHHHHSHDHYGCKQCSSLRSIQNLNSLVDKTSWIPSSVAEALGIVPLQYVFVMTFTLDDGTGVLEAYLMDSDKFFQIPASEVLMDDDLQKSVDMIMDMFCPPGIKIDAYPWLECFIKSYNVTNGTDNQICYQIFDTTVAEDVI”, the “soluble on expression in E. coli” value is “not soluble”. “MVRIIVDHSLILLYSLSAFEESKYISSEEQMQISEYINVDDKIIQRWFEIRRAPTQESWEPEVILPEAIAIFEKEFTTNPNPCSHTLEELRMKTHVQVDSINKWFDERRCAAEQNIKSDSEGSEASFSLCSSWGDTDKELKVDLKMA”: the “soluble on expression in E. coli” value is listed as “not soluble”. For “VDAFVGTWKLVDSKNFDDYMKSLGVGFATRQVGNMTKPTTIIEVNGDTVIIKTQSTFKNTEISFKLGVEFDETTADDRKVKSIVTLDGGKLVHVQKWNGQETSLVREMVDGKLILTLTHGTAVCTRTYEKQA”, the “soluble on expression in E. coli” value was “soluble”. As to “MGSDKIHHHHHHMADLCVNLVPLFDALPQDEKMQIEKLVQHKNYQKGEVIIDPTINDNLVIVADGNAKQYTLDEDGYENVLQILHTGDYIGEDWLFGQKNINNYVEATEHSEICLLKRQDLLKLMHKQPELSIRLLELSIVKVSEMQKQIHLMALPKVEDRLLKYLQTYADEIGKNNFTLPLKMKDLALYLGTTPETLSRKFALLEKQGQLKRQLRRIELFEN”, the “soluble on expression in E. coli” value was “not soluble”.

Turning to “MSLKKNIYPNKEGCPVEFTLDVIGGKWKGILFYHMIDGKKRFNEFRRICPSITQRMLTLQLRELEADGIVHREVYHQVPPKVEYSLTEFGRTLEPIVLQMKEWGESNRDVLESYRSNGLVKDQQKEGGSHHHHHH”, the “soluble on expression in E. coli” value was “soluble”. With “MYKDFANFIRTNKADLLNNWMNEMEKQSDQLINDIAKEAMYEETSKEFVDLIVSNVTENGSKFNEKLDDFAEKVVHLGWPIHFVTTGLRVFGLLVYTAMRDEDLFLKREEKPEDDAYYRFETWLSSMYNKVVTAYADTWEKTVSIQKSALQELSAPLLPIFEKISVMPLIGTIDTERAKLIIENLLIGVVKNRSEVVLIDITGVPVVDTMVAHHIIQASEAVRLVGCQAMLVGIRPEIAQTIVNLGIELDQIITTNTMKKGMERALALTNREIVEKEG” the entry was “not soluble”; with “SAGVRGLRFVERFGDNTASLIKNAILLDQQKVEVFNIRFKSSRDFTIQIKLNAKGNYKKSEVEKYKSQIGVQDNELGDKEEGTLEADLIFTYTPPASNLFSKSNFDKLTKSINFNTNLKLEMVGKDEVMRKILNSSAFTNNLASVNYPNQAVNLLPYVLYSIL”, “not soluble”; with “YKDSPKVLGQTYSSLLIDFTEGFHPNDLGIIVETIKEGGIIIAFSPPIEQWENLKSRWHEELVSEPYTVEDVTGRFFARFMRRTLQAEGIIIFD”, “not soluble”. Regarding “GPGSMPSGVTHSLSLSSLPVVSLLPRWHKAEVVSHRQLTPTATSAQERAKRGKTSVLAAANTAAMTATESKGFAELYHQLLQDGVQLQKELEAYYLRQEGYIRKRVAVLDEMQENIADERRCLELQHQECRAQISTTRKQAASFLSDERKVSQAVRHAQPFLAAQEAEIDKRLDELQREKEREDTALLNVMARQEALGKQEALLACRERQRFLEEQDLQKALIEMRSLNREMEERRKSLLRKHGTVADWDRKLESRERELLVCQDQLRENLKALEQEENALGIHPAQRTAVAPAVSQRTVMDDHDMSIEHDSACEEIDYED”, the “soluble on expression in E. coli” value is reported as “not soluble”. With “MSHKFSRRAFAVLTAAAISTSAFATTAPSAIAEPVSNVATADDSSVATSENSLDWGFKASWRTYVTGPWTGGTVDATGGATVNEDGTYNFTLGTGSNYDVDTEKGQLNYEGTVAFASDAHGFNITLSNPQITVEGDTATLSAELSDNAAPEETSTTRVDVAEFELTAPEVSETDADITYTWTDASGTFLETLQPEELSRYAGQEADALSFSITVDKASENPSDDVATGSSSSFLSTILNFLQQLASPLLKLFGSLSS” the entry was “not soluble”.
